Results reported in patent publication US20110178020A1 (UNIVERSITY OF LOUISVILLE RESEARCH FOUNDATION, published 2011).

Biological target: T1, GST-VAMP-2 (VAMP-2 generated as a GST fusion protein, bound to glutathione beads) (UniProt P63027 1-94)
T1 construct: not shown: glutathione S-transferase (GST) tag
Experiment: GST pull down, immunoblot for the HA tag

T1 sequence (P63027 1-94): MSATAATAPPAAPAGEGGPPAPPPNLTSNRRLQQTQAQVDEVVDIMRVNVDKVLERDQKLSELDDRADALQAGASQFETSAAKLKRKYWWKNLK

B1: TAT-HA-SNAP-23 fusion polypeptide (TAT cell-penetrating polypeptide, hemagglutinin affinity tag, and 78 amino acids from the amino-terminus of human SNAP-23) (other)
chain: MRGSHHHHHHGMASMTGGQQMGRDLYDDDDKDRWGSKLGYGRKKRRQRRRGGSTMSGYPYDVPDYAGSMDNLSSEEIQQRAHQITDESLESTRRILGLAIESQDAGIKTITMLDEQKEQLNRIEEGLDQINKDMRETEKTLTELNK
notes: also called TAT-SNAP-23
B1: no binding.
